Target: T1, human CLEC-2 (C-type lectin-like receptor 2) (human, UniProt Q9P126 1-229)
T1 construct: whole, on cells; also called T-REx human CLEC-2 expressing 293 cells
Experiment: column 'CLEC-2 binding' of the summary Table 10

T1 sequence (Q9P126 whole entry): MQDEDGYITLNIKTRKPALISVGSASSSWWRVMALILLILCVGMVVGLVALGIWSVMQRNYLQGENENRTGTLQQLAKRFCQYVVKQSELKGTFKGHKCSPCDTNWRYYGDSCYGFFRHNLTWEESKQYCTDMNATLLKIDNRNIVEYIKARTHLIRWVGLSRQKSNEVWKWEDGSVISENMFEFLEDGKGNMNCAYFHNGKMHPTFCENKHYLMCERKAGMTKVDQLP

B1: mutant rhodocytin derived from cell No. 3 (R28A and K31A) (ligand)
alpha: GLEDCDFGWSPYDQHCYQAFNEQKTWDEAEKFCRAQENGAHLASIESNGEADFVSWLISQKDELADEDYVWIGLRAQNKEQQCSSEWSDGSSVSYENLIDLHTKKCGALEKLTGFRKWVNYYCEQMHAFVCKLLPY
beta: DCPSGWSSYEGHCYKPFNEPKNWADAEAFCALQPKHSHLVSFQSAEEADFVVKLTRPRLKANLVWMGLSNIWHGCNWQWSDGARLNYKDWQEQSECLAFRGVHTEWLNMDCSSTCSFVCKFKA
modifications: α and β subunits are disulfide-linked. BN-PAGE shows a heterotrimer; each distinct subunit is given once.
notes: also called R28A, K31A
  binding result: binds

Reference: patent publication US20170320924A1 (UNIVERSITY OF YAMANASHI, published 2017)
